Values of other authors in PMC8894612.

Biological target: Regnase-1 (UniProt Q5D1E7)
Experiment: Biacore SPR

UniProt Q5D1E7, sequence (Q5D1E7 whole entry): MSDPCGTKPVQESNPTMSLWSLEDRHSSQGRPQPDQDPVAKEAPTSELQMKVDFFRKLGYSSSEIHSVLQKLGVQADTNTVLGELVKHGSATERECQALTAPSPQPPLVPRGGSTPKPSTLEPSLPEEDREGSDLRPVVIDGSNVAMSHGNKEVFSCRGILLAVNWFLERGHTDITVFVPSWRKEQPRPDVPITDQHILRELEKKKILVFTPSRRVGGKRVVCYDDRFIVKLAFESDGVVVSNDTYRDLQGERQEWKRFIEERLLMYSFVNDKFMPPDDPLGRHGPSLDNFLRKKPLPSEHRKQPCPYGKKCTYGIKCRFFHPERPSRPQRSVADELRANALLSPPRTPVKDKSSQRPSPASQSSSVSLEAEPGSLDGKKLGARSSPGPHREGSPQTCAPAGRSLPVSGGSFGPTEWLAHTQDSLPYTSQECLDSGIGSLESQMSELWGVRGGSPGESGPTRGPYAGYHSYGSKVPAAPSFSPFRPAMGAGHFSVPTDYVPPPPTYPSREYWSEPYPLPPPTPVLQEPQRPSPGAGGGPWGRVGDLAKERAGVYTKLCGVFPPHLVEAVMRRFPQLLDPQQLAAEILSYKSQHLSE

Which Kd does the source give for Roquin-1 (from UniProt Q4VGL6) here?
Its Kd is 417 nM.
